# Reference: patent US20210301025A1 (published 2021)
# Changes are numbered by the printed parent chain. Names and notes keep the numbering of the source.
# B1: P54AR4-83v2 A3C, NEM conjugate (designed binder, not shown: small tags and cut ends)
# chain: LPCPKNLVVSEVTEDSARLSWDDPWAFYESFLIQYQESEKVGEAIVLTVPGSERSYDLTGLKPGTEYTVSIYGVHNVYKDTNMRGLPLSAIFTT
# modifications: N-ethyl maleimide (NEM) on Cys 3
# B2: P54AR4-83v2 L88C, NEM conjugate (designed binder, not shown: small tags and cut ends)
# chain: B1 chain with C3A, L88C
# modifications: N-ethyl maleimide (NEM) on Cys 88
# B3: P54AR4-83v2 E11C, NEM conjugate (designed binder, not shown: small tags and cut ends)
# chain: B1 chain with C3A, E11C
# modifications: N-ethyl maleimide (NEM) on Cys 11
# B4: P54AR4-83v2 G42C, NEM conjugate (designed binder, not shown: small tags and cut ends)
# chain: B1 chain with C3A, G42C
# modifications: N-ethyl maleimide (NEM) on Cys 42
# B5: P54AR4-83v2 K40C, NEM conjugate (designed binder, not shown: small tags and cut ends)
# chain: B1 chain with C3A, K40C
# modifications: N-ethyl maleimide (NEM) on Cys 40
# B6: P54AR4-83v2 P2C, NEM conjugate (designed binder, not shown: small tags and cut ends)
# chain: B1 chain with P2C, C3A
# modifications: N-ethyl maleimide (NEM) on Cys 2
# B7: P54AR4-83v2 N6C, NEM conjugate (designed binder, not shown: small tags and cut ends)
# chain: B1 chain with C3A, N6C
# modifications: N-ethyl maleimide (NEM) on Cys 6
# B8: P54AR4-83v2 K62C, NEM conjugate (designed binder, not shown: small tags and cut ends)
# chain: B1 chain with C3A, K62C
# modifications: N-ethyl maleimide (NEM) on Cys 62
# B9: P54AR4-83v2 E43C, NEM conjugate (designed binder, not shown: small tags and cut ends)
# chain: B1 chain with C3A, E43C
# modifications: N-ethyl maleimide (NEM) on Cys 43
# B10: P54AR4-83v2 P4C, NEM conjugate (designed binder, not shown: small tags and cut ends)
# chain: B1 chain with C3A, P4C
# modifications: N-ethyl maleimide (NEM) on Cys 4
# B11: P54AR4-83v2 E39C, NEM conjugate (designed binder, not shown: small tags and cut ends)
# chain: B1 chain with C3A, E39C
# modifications: N-ethyl maleimide (NEM) on Cys 39
# B12: P54AR4-83v2 K5C, NEM conjugate (designed binder, not shown: small tags and cut ends)
# chain: B1 chain with C3A, K5C
# modifications: N-ethyl maleimide (NEM) on Cys 5
# notes: also called KSC
# B13: P54AR4-83v2 F31C, NEM conjugate (designed binder, not shown: small tags and cut ends)
# chain: B1 chain with C3A, F31C
# modifications: N-ethyl maleimide (NEM) on Cys 31
# B14: P54AR4-83v2 E53C, NEM conjugate (designed binder, not shown: small tags and cut ends)
# chain: B1 chain with C3A, E53C
# modifications: N-ethyl maleimide (NEM) on Cys 53
# B15: P54AR4-83v2 D22C, NEM conjugate (designed binder, not shown: small tags and cut ends)
# chain: B1 chain with C3A, D22C
# modifications: N-ethyl maleimide (NEM) on Cys 22
# B16: P54AR4-83v2 L47C, NEM conjugate (designed binder, not shown: small tags and cut ends)
# chain: B1 chain with C3A, L47C
# modifications: N-ethyl maleimide (NEM) on Cys 47
# B17: P54AR4-83v2 E14C, NEM conjugate (designed binder, not shown: small tags and cut ends)
# chain: B1 chain with C3A, E14C
# modifications: N-ethyl maleimide (NEM) on Cys 14
# B18: P54AR4-83v2 F27C, NEM conjugate (designed binder, not shown: small tags and cut ends)
# chain: B1 chain with C3A, F27C
# modifications: N-ethyl maleimide (NEM) on Cys 27
# B19: P54AR4-83v2 L7C, NEM conjugate (designed binder, not shown: small tags and cut ends)
# chain: B1 chain with C3A, L7C
# modifications: N-ethyl maleimide (NEM) on Cys 7
# B20: P54AR4-83v2 G64C, NEM conjugate (designed binder, not shown: small tags and cut ends)
# chain: B1 chain with C3A, G64C
# modifications: N-ethyl maleimide (NEM) on Cys 64
# B21: P54AR4-83v2 G85C, NEM conjugate (designed binder, not shown: small tags and cut ends)
# chain: B1 chain with C3A, G85C
# modifications: N-ethyl maleimide (NEM) on Cys 85
# B22: P54AR4-83v2 M83C, NEM conjugate (designed binder, not shown: small tags and cut ends)
# chain: B1 chain with C3A, M83C
# modifications: N-ethyl maleimide (NEM) on Cys 83
# B23: P54AR4-83v2 N82C, NEM conjugate (designed binder, not shown: small tags and cut ends)
# chain: B1 chain with C3A, N82C
# modifications: N-ethyl maleimide (NEM) on Cys 82
# B24: P54AR4-83v2 H75C, NEM conjugate (designed binder, not shown: small tags and cut ends)
# chain: B1 chain with C3A, H75C
# modifications: N-ethyl maleimide (NEM) on Cys 75
# B25: P54AR4-83v2 I45C, NEM conjugate (designed binder, not shown: small tags and cut ends)
# chain: B1 chain with C3A, I45C
# modifications: N-ethyl maleimide (NEM) on Cys 45
# B26: P54AR4-83v2 L32C, NEM conjugate (designed binder, not shown: small tags and cut ends)
# chain: B1 chain with C3A, L32C
# modifications: N-ethyl maleimide (NEM) on Cys 32
# B27: P54AR4-83v2 D15C, NEM conjugate (designed binder, not shown: small tags and cut ends)
# chain: B1 chain with C3A, D15C
# modifications: N-ethyl maleimide (NEM) on Cys 15
# B28: P54AR4-83v2 N76C, NEM conjugate (designed binder, not shown: small tags and cut ends)
# chain: B1 chain with C3A, N76C
# modifications: N-ethyl maleimide (NEM) on Cys 76
# B29: P54AR4-83v2 G73C, NEM conjugate (designed binder, not shown: small tags and cut ends)
# chain: B1 chain with C3A, G73C
# modifications: N-ethyl maleimide (NEM) on Cys 73
# B30: P54AR4-83v2 E29C, NEM conjugate (designed binder, not shown: small tags and cut ends)
# chain: B1 chain with C3A, E29C
# modifications: N-ethyl maleimide (NEM) on Cys 29
# B31: P54AR4-83v2 L86C, NEM conjugate (designed binder, not shown: small tags and cut ends)
# chain: B1 chain with C3A, L86C
# modifications: N-ethyl maleimide (NEM) on Cys 86
# B32: P54AR4-83v2 I91C, NEM conjugate (designed binder, not shown: small tags and cut ends)
# chain: B1 chain with C3A, I91C
# modifications: N-ethyl maleimide (NEM) on Cys 91
# B33: P54AR4-83v2 A26C, NEM conjugate (designed binder, not shown: small tags and cut ends)
# chain: B1 chain with C3A, A26C
# modifications: N-ethyl maleimide (NEM) on Cys 26
# B34: P54AR4-83v2 G60C, NEM conjugate (designed binder, not shown: small tags and cut ends)
# chain: B1 chain with C3A, G60C
# modifications: N-ethyl maleimide (NEM) on Cys 60
# B35: P54AR4-83v2 K79C, NEM conjugate (designed binder, not shown: small tags and cut ends)
# chain: B1 chain with C3A, K79C
# modifications: N-ethyl maleimide (NEM) on Cys 79
# B36: P54AR4-83v2 D23C, NEM conjugate (designed binder, not shown: small tags and cut ends)
# chain: B1 chain with C3A, D23C
# modifications: N-ethyl maleimide (NEM) on Cys 23
# B37: P54AR4-83v2 D80C, NEM conjugate (designed binder, not shown: small tags and cut ends)
# chain: B1 chain with C3A, D80C
# modifications: N-ethyl maleimide (NEM) on Cys 80
# B38: P54AR4-83v2 A90C, NEM conjugate (designed binder, not shown: small tags and cut ends)
# chain: B1 chain with C3A, A90C
# modifications: N-ethyl maleimide (NEM) on Cys 90
# B39: P54AR4-83v2 G51C, NEM conjugate (designed binder, not shown: small tags and cut ends)
# chain: B1 chain with C3A, G51C
# modifications: N-ethyl maleimide (NEM) on Cys 51
# Molecular target: T1, EGFR (form used in the assay not stated) (human, UniProt P00533 25-645, limits assumed)
# Experiment: ELISA, NEM conjugate, 500 nM
row,Binder,binding relative to P54AR4-83v2 parent
1,B1,0.82 ratio
2,B2,0.97 ratio
3,B3,0.95 ratio
4,B4,0.9 ratio
5,B5,0.86 ratio
6,B6,0.01 ratio
7,B7,0.89 ratio
8,B8,0.61 ratio
9,B9,0.92 ratio
10,B10,0.12 ratio
11,B11,0.9 ratio
12,B12,0.92 ratio
13,B13,0.62 ratio
14,B14,0.91 ratio
15,B15,0.9 ratio
16,B16,0.91 ratio
17,B17,1.15 ratio
18,B18,0.23 ratio
19,B19,0.9 ratio
20,B20,1.36 ratio

row,Binder,binding relative to P54AR4-83v2 parent
1,B21,0.29 ratio
2,B22,0.24 ratio
3,B23,0.96 ratio
4,B24,0.25 ratio
5,B25,0.93 ratio
6,B26,0.91 ratio
7,B27,0.97 ratio
8,B28,0.91 ratio
9,B29,0.21 ratio
10,B30,0.93 ratio
11,B31,0.92 ratio
12,B32,1 ratio
13,B33,0.95 ratio
14,B34,0.93 ratio
15,B35,0.93 ratio
16,B36,0.4 ratio
17,B37,0.91 ratio
18,B38,1.01 ratio
19,B39,0.92 ratio

# Molecular target: T1, EGFR (form used in the assay not stated)
# Experiment: ELISA, NEM conjugate, 100 nM
row,Binder,binding relative to P54AR4-83v2 parent
1,B1,0.88 ratio
2,B2,1.03 ratio
3,B3,1.08 ratio
4,B4,0.99 ratio
5,B5,0.95 ratio
6,B6,0 ratio
7,B7,1.01 ratio
8,B8,0.73 ratio
9,B9,1.04 ratio
10,B10,0.02 ratio
11,B11,1 ratio
12,B12,1.06 ratio
13,B13,0.34 ratio
14,B14,1.02 ratio
15,B15,1.02 ratio
16,B16,1.02 ratio
17,B17,1.27 ratio
18,B18,0.07 ratio
19,B19,1 ratio
20,B20,1.42 ratio

row,Binder,binding relative to P54AR4-83v2 parent
1,B21,0.02 ratio
2,B22,0.04 ratio
3,B23,0.97 ratio
4,B24,0.19 ratio
5,B25,1.04 ratio
6,B26,1.01 ratio
7,B27,1.09 ratio
8,B28,0.97 ratio
9,B29,0.02 ratio
10,B30,1.07 ratio
11,B31,0.96 ratio
12,B32,1.01 ratio
13,B33,1.06 ratio
14,B34,1.02 ratio
15,B35,0.99 ratio
16,B36,0.2 ratio
17,B37,0.97 ratio
18,B38,1.05 ratio
19,B39,1.03 ratio

# Molecular target: T1, EGFR (form used in the assay not stated)
# Experiment: ELISA, NEM conjugate, 10 nM
row,Binder,binding relative to P54AR4-83v2 parent
1,B1,0.34 ratio
2,B2,0.95 ratio
3,B3,0.9 ratio
4,B4,0.84 ratio
5,B5,0.88 ratio
6,B6,0 ratio
7,B7,0.76 ratio
8,B8,0.64 ratio
9,B9,0.68 ratio
10,B10,0.02 ratio
11,B11,0.9 ratio
12,B12,0.61 ratio
13,B13,0.04 ratio
14,B14,0.91 ratio
15,B15,0.84 ratio
16,B16,0.92 ratio
17,B17,1.11 ratio
18,B18,0 ratio
19,B19,0.35 ratio
20,B20,1.28 ratio

row,Binder,binding relative to P54AR4-83v2 parent
1,B21,0.19 ratio
2,B22,0.07 ratio
3,B23,0.56 ratio
4,B24,0.07 ratio
5,B25,0.91 ratio
6,B26,0.87 ratio
7,B27,0.98 ratio
8,B28,0.75 ratio
9,B29,0 ratio
10,B30,0.89 ratio
11,B31,0.77 ratio
12,B32,0.9 ratio
13,B33,0.95 ratio
14,B34,0.86 ratio
15,B35,0.9 ratio
16,B36,0.02 ratio
17,B37,0.7 ratio
18,B38,0.94 ratio
19,B39,0.88 ratio
